In article PMC3034952 (Enzyme Research, 2011):
Numbering of substitutions follows the chain as printed. Names may count otherwise.

B1: AtPDC E1 (AtE1; recombinant alpha2beta2 pyruvate dehydrogenase) (Arabidopsis thaliana) (protein)
chain 1: SAAFSRLISTDTTPITIETSLPFTAHLCDPPSRSVESSSQELLDFFRTMALMRRMEIAADSLYKAKLIRGFCHLYDGQEAVAIGMEAAITKKDAIITAYRDHCIFLGRGGSLHEVFSELMGRQAGCSKGKGGSMHFYKKESSFYGGHGIVGAQVPLGCGIAFAQKYNKEEAVTFALYGDGAANQGQLFEALNISALWDLPAILVCENNHYGMGTAEWRAAKSPSYYKRGDYVPGLKVDGMDAFAVKQACKFAKQHALEKGPIILEMDTYRYHGHSMSDPGSTYRTRDEISGVRQERDPIERIKKLVLSHDLATEKELKDMEKEIRKEVDDAIAKAKDCPMPEPSELFTNVYVKGFGTESFGPDRKEVKASLP
chain 2: AAGAKEMTVRDALNSAIDEEMSADPKVFVMGEEVGQYQGAYKITKGLLEKYGPERVYDTPITEAGFTGIGVGAAYAGLKPVVEFMTFNFSMQAIDHIINSAAKSNYMSAGQINVPIVFRGPNGAAAGVGAQHSQCYAAWYASVPGLKVLAPYSAEDARGLLKAAIRDPDPVVFLENELLYGESFPISEEALDSSFCLPIGKAKIEREGKDVTIVTFSKMVGFALKAAEKLAEEGISAEVINLRSIRPLDRATINASVRKTSRLVTVEEGFPQHGVCAEICASVVEESFSYLDAPVERIAGADVPMPYAANLERLALPQIEDIVRASKRACYRSK
notes: co-expressed in E. coli with GroE; alpha2beta2 heterotetramer, Mr 160,000
B2: AtPDC E1 (AtE1; recombinant alpha2beta2 pyruvate dehydrogenase) (Arabidopsis thaliana; P52901:D295N) (protein)
chain 1: B1 chain 1 with D278N
chain 2: B1 chain 2
notes: as for B1
B3: AtPDC E1 (AtE1; recombinant alpha2beta2 pyruvate dehydrogenase) (Arabidopsis thaliana; P52901:D295A) (protein)
chain 1: B1 chain 1 with D278A
chain 2: B1 chain 2
notes: as for B1
B4: AtPDC E1 (AtE1; recombinant alpha2beta2 pyruvate dehydrogenase) (Arabidopsis thaliana; P52901:G297D) (protein)
chain 1: B1 chain 1 with G280D
chain 2: B1 chain 2
notes: as for B1
B5: AtPDC E1α, wild type, bacterial two-hybrid fusion in pTRG (enzyme, Arabidopsis thaliana, UniProt P52901 1-389, looked up)
chain: MALSRLSSRSNIITRPFSAAFSRLISTDTTPITIETSLPFTAHLCDPPSRSVESSSQELLDFFRTMALMRRMEIAADSLYKAKLIRGFCHLYDGQEAVAIGMEAAITKKDAIITAYRDHCIFLGRGGSLHEVFSELMGRQAGCSKGKGGSMHFYKKESSFYGGHGIVGAQVPLGCGIAFAQKYNKEEAVTFALYGDGAANQGQLFEALNISALWDLPAILVCENNHYGMGTAEWRAAKSPSYYKRGDYVPGLKVDGMDAFAVKQACKFAKQHALEKGPIILEMDTYRYHGHSMSDPGSTYRTRDEISGVRQERDPIERIKKLVLSHDLATEKELKDMEKEIRKEVDDAIAKAKDCPMPEPSELFTNVYVKGFGTESFGPDRKEVKASLP

substrate: CC(=O)C(=O)O; test: purified protein; type: biochemical, Arabidopsis thaliana; details: 1.8 μM K3Fe(CN)6 as electron acceptor, 30°C, labelled compound

Binder | Km [µM] | kcat [s⁻¹] | kcat/Km [M⁻¹ s⁻¹]
B1 | 45 ± 18 | 159 ± 14 | 3.5e+06
B2 | 257 ± 144 | 38 ± 10 | 100000
B3 | 178 ± 108 | 52 ± 12 | 300000
B4 | 66 ± 24 | 70 ± 7 | 1e+06

molecular target: T1, Arabidopsis thaliana pyruvate dehydrogenase-kinase (AtPDK), wild type, bacterial two-hybrid fusion in pBT (Arabidopsis thaliana, UniProt Q9SBJ1 1-366); test: two-hybrid; bacterial two-hybrid (BacterioMatch I, Stratagene): AtPDK in pBT, E1α constructs in pTRG, cotransformed into the E. coli reporter strain; quantified by β-galactosidase activity with o-nitrophenyl-β-D-galactoside; details: partners not purified
T1 sequence (looked up): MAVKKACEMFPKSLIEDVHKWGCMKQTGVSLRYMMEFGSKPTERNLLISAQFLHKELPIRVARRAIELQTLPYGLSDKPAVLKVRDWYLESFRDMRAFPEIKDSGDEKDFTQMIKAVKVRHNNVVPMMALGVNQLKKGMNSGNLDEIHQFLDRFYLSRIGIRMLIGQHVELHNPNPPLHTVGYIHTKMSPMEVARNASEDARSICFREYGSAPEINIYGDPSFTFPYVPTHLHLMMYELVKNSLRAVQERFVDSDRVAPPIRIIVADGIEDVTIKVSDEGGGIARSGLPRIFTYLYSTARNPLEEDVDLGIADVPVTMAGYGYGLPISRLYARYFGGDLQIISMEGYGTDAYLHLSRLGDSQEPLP

Binder | β-galactosidase reporter activity (100% of WT) [μmol min^−1 1.0 A600^−1]
B5 | 3
